# According to publication PMC10520629:
# T1: full-length human HACE1 (HECT domain and Ankyrin repeat containing E3 Ubiquitin Protein Ligase 1), wild type, aa 1-909 (human), Q8IYU2
# T1 chain: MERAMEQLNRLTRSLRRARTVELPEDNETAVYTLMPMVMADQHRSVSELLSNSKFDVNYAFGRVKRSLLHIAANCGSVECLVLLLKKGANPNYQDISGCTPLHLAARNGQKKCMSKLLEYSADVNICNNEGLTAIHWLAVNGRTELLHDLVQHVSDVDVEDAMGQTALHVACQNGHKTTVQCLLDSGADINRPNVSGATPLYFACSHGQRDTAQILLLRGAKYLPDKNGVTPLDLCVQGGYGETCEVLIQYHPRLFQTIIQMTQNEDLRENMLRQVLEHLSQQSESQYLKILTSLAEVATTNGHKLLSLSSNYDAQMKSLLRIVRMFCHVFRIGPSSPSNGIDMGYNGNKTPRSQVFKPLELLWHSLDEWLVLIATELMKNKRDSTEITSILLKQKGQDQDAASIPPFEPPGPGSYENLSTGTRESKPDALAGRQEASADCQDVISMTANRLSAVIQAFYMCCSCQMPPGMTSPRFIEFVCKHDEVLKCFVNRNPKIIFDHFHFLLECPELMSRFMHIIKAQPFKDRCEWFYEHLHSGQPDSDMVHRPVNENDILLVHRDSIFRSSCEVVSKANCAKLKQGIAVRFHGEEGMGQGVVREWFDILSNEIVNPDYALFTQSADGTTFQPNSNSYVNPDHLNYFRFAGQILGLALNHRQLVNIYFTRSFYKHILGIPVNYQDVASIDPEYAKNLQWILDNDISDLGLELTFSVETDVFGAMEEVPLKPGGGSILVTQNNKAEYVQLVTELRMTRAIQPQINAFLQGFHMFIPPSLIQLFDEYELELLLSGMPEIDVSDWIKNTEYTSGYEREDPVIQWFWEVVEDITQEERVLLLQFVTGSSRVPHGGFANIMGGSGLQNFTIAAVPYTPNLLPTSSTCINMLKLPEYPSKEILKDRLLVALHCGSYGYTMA
# B1: full-length human HACE1 (HECT domain and Ankyrin repeat containing E3 Ubiquitin Protein Ligase 1), wild type, aa 1-909, Q8IYU2 1-909 (enzyme)
# chain: T1 chain
# What was measured:
# [1] = biological target: T1, full-length human HACE1 (HECT domain …); test: AUC; sedimentation velocity, 40 000 rpm, 20 °C, continuous c(s) distribution model; conditions: remark: other sources report otherwise
# [2] = biological target: T1, full-length human HACE1 (HECT domain …); test: SEC; gel filtration of purified full-length HACE1 (Superdex; 20 mM HEPES pH 8.0, 150 mM NaCl, 5% glycerol, 1 mM DTT); conditions: remark: other sources report otherwise
binder,measurement,setting,value
B1,percent of molecules as dimer or higher oligomers,[1],79%
same,stoichiometry N,[2],2
